Test results published in US20160129077A1, “Use of recombinant ganoderma immunoregulatory protein (rLZ-8) in preparation of drug for treating melanoma” (priority 2013, published 2016).
Where two headings read alike, the source gives them in different places. Marks after values point to notes of the source that are not given here.

Assays:
B16-F10 lung metastases = experiment: B16-F10 melanoma lung metastasis model (tail vein injection) in Kunming mice; type: in vivo; conditions: for Survival rate when all mice of the negative contrast group were dead: 87th / 95th day after injecting the tumors
From the text: DMEM, fetal bovine serum, PBS, trypsin-EDTA, DMSO, Tris-HCl buffer with pH 7.6 for rinsing, 0.05% trypsin, rLZ-8, and DTIC.
After the mice were put to death, lungs of the dead mice were dissected out and the number of black spots on surfaces of the lungs, formed by an aggregation of metastasis cell, was counted, so as to calculate the inhibition rate of the drug against the growth of the lung metastasis as: inhibition rate=(an average metastasis number of the negative contrast group−an average metastasis number of the drug administrated group)/the average metastasis number of the negative contrast group×100%. A time and the number of the dead mouse in each experiment group were recorded in detail, especially during administrating the drug continuously, until the negative contrast group was completely dead; and then, the survival states of the mice in the experiment groups and the contrast groups were analyzed. A survival rate was calculated according to the number of the dead mice in the other groups when all the mice of the negative contrast group were dead, based on a formula that survival rate=(a total number of the mice−the number of the dead mice)/the total number of the mice.

[1] = system: IFN-γ secreting expression; experiment: Neutralization activity of anti-rLZ-8 antibody by biological activity method (IFN-γ secreting expression stimulated by rLZ-8); type: cell-based
Method: As a fungal recombinant genetic engineering drug, it is crucial to track generation of antibody of the rLZ-8 for a preclinical evaluation. Blood serum of normal monkeys, Macaca fascicularis, after being continuously administrated, was selected for testing antibody of the rLZ-8 by ELISA and for testing a neutralization activity of anti-rLZ-8 antibody by a biological activity method.
On the 9th-11th days of administrating the drug, three monkeys were tested to have low titer (1:5) of the anti-rLZ-8 antibody; after the 28th day of administrating, the titer of the antibody maintained low, within a range of 1:25 to 1:125. No anti-rLZ-8 antibody was tested from the monkeys of the contrast group. […] Therefore, the inhibition effect of the monkey blood serum was not the property of the competitive neutralizing antibody.

[2] = Toxicity test of rLZ-8 on SD rats; type: in vivo; design: Weight gains, male / Weight gains, female / BUN (blood urea nitrogen) / CHE (cholinesterase) / CRE (creatinine) / TBA (total bile acid) / UA (uric acid) / ALT (alanine aminotransferase) / AST (aspartate aminotransferase): unit not given here; conditions: for Weight gains, female: female SD rats; for Weight gains, female / Weight gains, male: 46 days; for Weight gains, male: male SD rats
Method: The administration dosages for the rats were calculated based on the administration dosage for the mice; the rats were divided into a contrast group (physiological saline), a low dosage group (15 μl/kg weight), a medium dosage group (30 μl/kg weight) and a high dosage group (60 μl/kg weight). The administration manner was an intraperitoneal injection.
Feeding amount, weight; serology: liver function and kidney function; immunity: thymus index and spleen index; serum complements IgM, IgG, C3 and C4; pathology examination: heart, liver, spleen, lung, kidney, pancreas, thymus, gonad etc.

B16F10 orthotopic tumor = conditions: for Mortality rate (administration for 28 days) / Mortality rate (administration for 56 days): dead mice/animal number
Method: The mice were transplanted with a melanoma cells line B16-F10.
The mice melanoma cells B16-F10 were cultured in the DMEM containing 10% fetal bovine serum, at 37° C. in the CO2 thermostat incubator. 200 μl of B16-F10 cell suspension (containing 1×10^7 cells) was slowly subcutaneously injected into a dorsal-ventral side of the mouse through 1 ml syringe, so as to establish a model of mice transplanted with tumors. […] The rLZ-8 was injected once per day; the DTIC was continuously tail-intravenously injected for 5 days and injected for a second time after 3 weeks. During the experiment, living states of the mice were observed; the mice were weighed once every 7 days; blood samples were taken from tail veins of the mice every 2 weeks; volumes of the tumors, subcutaneously injected into the mice, were measured every 2 days; for each group, the tumors were dissected at an end of the experiment and weighed on the balance, with weights recorded. According to a formula that a tumor growth inhibition rate=(an average weight of the tumors of the physiological saline group−an average weight of the tumors of the drug administrated groups)/the average weight of the tumors of the physiological saline group, the inhibition rate of the rLZ-8 upon the growth of the orthotopic tumor was calculated.

[3] = system: human gastric cancer cells (SGC-7901); conditions: cited from earlier work
[4] = system: human lung carcinoma cells (A549); conditions: cited from earlier work
[5] = medium dosage 246 μg/kg, 56 days
[6] = culture medium with anti-rLZ-8 antibody positive (1:125) monkey blood serum diluted 10 times
[7] = high dosage 60 μl/kg weight i.p.
[8] = low dosage 15 μl/kg weight i.p.
[9] = medium dosage 30 μl/kg weight i.p.
[10] = medium dosage 246 μg/kg, 28 days

B1: rLZ-8: recombinant ganoderma immunoregulatory protein (LZ-8), fungal immunoregulatory protein obtained by gene engineering (protein, UniProt P14945 2-111, looked up)
Immunomodulatory protein Ling …: SDTALIFRLAWDVKKLSFDYTPNWGRGNPNNFIDTVTFPKVLTDKAYTYRVAVSGRNLGVKPSYAVESDGSQKVNFLEYNSGYGIADTNTIQVFVVDPDTNNDFIIAQWN
Survival rate when all mice of the negative contrast group were dead (B16-F10 lung metastases; high dosage 492 μg/kg): 10% | Tumor metastases inhibition rate (B16-F10 lung metastases; high dosage 492 μg/kg, 28 days): 71.17±2.43% | Tumor metastases inhibition rate (B16-F10 lung metastases; high dosage 492 μg/kg, 56 days): 89.78 ± 2.77 % | Survival rate when all mice of the negative contrast group were dead (B16-F10 lung metastases; low dosage 123 μg/kg): 25% | Tumor metastases inhibition rate (B16-F10 lung metastases; low dosage 123 μg/kg, 28 days): 62.13±1.88% | Tumor metastases inhibition rate (B16-F10 lung metastases; low dosage 123 μg/kg, 56 days): 66.18 ± 1.79 % | Survival rate when all mice of the negative contrast group were dead (B16-F10 lung metastases; medium dosage 246 μg/kg): 30% | Tumor metastases inhibition rate (B16-F10 lung metastases; [5]): 84.31 ± 3.12 % | Maximum expression value (Emax) of value A [1, 6]: 0.78±0.09 | Slope of the curve [1, 6]: 0.77±0.20 | Generation of neutralizing antibody ([1]; monkeys, continuous administration): does not generate the neutralizing antibody | Half maximal inhibitory concentration IC50 ([1]; with antibody positive monkey blood serum versus without): increased | Impact on liver function and kidney function ([2]; SD rats, all dosage groups): no obvious adverse impact on the liver function and the kidney function | Pathology examination of tested organs ([2]; compared with the organs of the contrast group): no obvious morphological change | Weight gains, female [2, 7]: 133.37 ± 15.29 | Weight gains, female [2, 8]: 140.00 ± 23.48 | Weight gains, female [2, 9]: 124.08 ± 14.17 | ALB (albumin) [2, 7]: 34.77 ± 1.44 | ALP (alkaline phosphatase) [2, 7]: 218.50 ± 69.98 | ALT (alanine aminotransferase) [2, 7]: 30.75 ± 2.42 | AST (aspartate aminotransferase) [2, 7]: 128.58 ± 18.74 | BUN (blood urea nitrogen) [2, 7]: 7.24 ± 0.89 | C3 [2, 7]: 0.428 ± 0.082 g/L | C4 [2, 7]: 0.352 ± 0.016 g/L | CHE (cholinesterase) [2, 7]: 456.17 ± 309.59 | CRE (creatinine) [2, 7]: 24.22 ± 2.55 | IgG [2, 7]: 0.124 ± 0.081 g/L | IgM [2, 7]: 0.236 ± 0.076 g/L | Spleen index (spleen weight/weight × 100) [2, 7]: 0.19 ± 0.02 | TBA (total bile acid) [2, 7]: 37.30 ± 17.63 | TP (total protein) [2, 7]: 63.23 ± 2.88 | Thymus index (thymus weight/weight × 100) [2, 7]: 0.17 ± 0.03 | UA (uric acid) [2, 7]: 164.50 ± 28.94 | ALB (albumin) [2, 8]: 37.54 ± 1.62 | ALP (alkaline phosphatase) [2, 8]: 243.50 ± 103.54 | ALT (alanine aminotransferase) [2, 8]: 35.50 ± 4.93 | AST (aspartate aminotransferase) [2, 8]: 175.00 ± 34.96 | BUN (blood urea nitrogen) [2, 8]: 7.54 ± 0.47 | C3 [2, 8]: 0.449 ± 0.097 g/L | C4 [2, 8]: 0.397 ± 0.021 g/L | CHE (cholinesterase) [2, 8]: 474.17 ± 305.10 | CRE (creatinine) [2, 8]: 24.97 ± 1.89 | IgG [2, 8]: 0.146 ± 0.021 g/L | IgM [2, 8]: 0.220 ± 0.080 g/L | Spleen index (spleen weight/weight × 100) [2, 8]: 0.19 ± 0.03 | TBA (total bile acid) [2, 8]: 30.13 ± 16.29 | TP (total protein) [2, 8]: 67.58 ± 3.34 | Thymus index (thymus weight/weight × 100) [2, 8]: 0.15 ± 0.03 | UA (uric acid) [2, 8]: 174.42 ± 46.65 | Weight gains, male [2, 7]: 221.92 ± 21.84 | Weight gains, male [2, 8]: 215.25 ± 17.82 | Weight gains, male [2, 9]: 218.67 ± 10.89 | ALB (albumin) [2, 9]: 36.57 ± 2.20 | ALP (alkaline phosphatase) [2, 9]: 242.83 ± 80.94 | ALT (alanine aminotransferase) [2, 9]: 34.42 ± 4.50 | AST (aspartate aminotransferase) [2, 9]: 169.08 ± 30.83 | BUN (blood urea nitrogen) [2, 9]: 7.36 ± 0.97 | C3 [2, 9]: 0.457 ± 0.088 g/L | C4 [2, 9]: 0.412 ± 0.017 g/L | CHE (cholinesterase) [2, 9]: 487.17 ± 303.02 | CRE (creatinine) [2, 9]: 24.26 ± 3.55 | IgG [2, 9]: 0.121 ± 0.021 g/L | IgM [2, 9]: 0.228 ± 0.084 g/L | Spleen index (spleen weight/weight × 100) [2, 9]: 0.18 ± 0.02 | TBA (total bile acid) [2, 9]: 38.25 ± 18.15 | TP (total protein) [2, 9]: 66.58 ± 4.77 | Thymus index (thymus weight/weight × 100) [2, 9]: 0.12 ± 0.02 | UA (uric acid) [2, 9]: 186.83 ± 45.67 | Increase of tumor inhibition rate between administration for 28 days and for 56 days (B16F10 orthotopic tumor; each rLZ-8 dosage group): around 15% | Tumor weight (B16F10 orthotopic tumor; high dosage 492 μg/kg tail i.v. once per day, 28 days): 0.14 ± 0.04 g | Tumor growth inhibition rate (B16F10 orthotopic tumor; high dosage 492 μg/kg, 28 days): 88.49 ± 0.51 % | Tumor volume (B16F10 orthotopic tumor; high dosage 492 μg/kg, 28 days): 0.11 ± 0.03** mm^3 | Tumor growth inhibition rate (B16F10 orthotopic tumor; high dosage 492 μg/kg, 56 days): 95.66±1.77% | Tumor volume (B16F10 orthotopic tumor; high dosage 492 μg/kg, 56 days): 0.13 ± 0.09**^## mm^3 | Tumor weight (B16F10 orthotopic tumor; high dosage 492 μg/kg, 56 days): 0.15 ± 0.07 g | Mortality rate (administration for 28 days) (B16F10 orthotopic tumor; high dosage 492 μg/kg): 0/10 | Mortality rate (administration for 56 days) (B16F10 orthotopic tumor; high dosage 492 μg/kg): 0/10 | Tumor weight (B16F10 orthotopic tumor; low dosage 123 μg/kg tail i.v. once per day, 28 days): 0.6 ± 0.21 g | Tumor growth inhibition rate (B16F10 orthotopic tumor; low dosage 123 μg/kg, 28 days): 51.81 ± 0.41 % | Tumor volume (B16F10 orthotopic tumor; low dosage 123 μg/kg, 28 days): 0.5 ± 0.14**^## mm^3 | Tumor growth inhibition rate (B16F10 orthotopic tumor; low dosage 123 μg/kg, 56 days): 76.76 ± 0.53 % | Tumor volume (B16F10 orthotopic tumor; low dosage 123 μg/kg, 56 days): 0.65 ± 0.24**^# mm^3 | Tumor weight (B16F10 orthotopic tumor; low dosage 123 μg/kg, 56 days): 0.79 ± 0.31**^ g | Mortality rate (administration for 28 days) (B16F10 orthotopic tumor; low dosage 123 μg/kg): 0/10 | Mortality rate (administration for 56 days) (B16F10 orthotopic tumor; low dosage 123 μg/kg): 0/10 | Tumor weight (B16F10 orthotopic tumor; medium dosage 246 μg/kg tail i.v. once per day, 28 days): 0.43 ± 0.17 g | Tumor growth inhibition rate (B16F10 orthotopic tumor; [10]): 65.00 ± 0.77 % | Tumor volume (B16F10 orthotopic tumor; [10]): 0.36 ± 0.14**^## mm^3 | Tumor growth inhibition rate (B16F10 orthotopic tumor; [5]): 80.10 ± 1.01 % | Tumor volume (B16F10 orthotopic tumor; [5]): 0.56 ± 0.18**^## mm^3 | Tumor weight (B16F10 orthotopic tumor; [5]): 0.68 ± 0.19 g | Mortality rate (administration for 28 days) (B16F10 orthotopic tumor; medium dosage 246 μg/kg): 0/10 | Mortality rate (administration for 56 days) (B16F10 orthotopic tumor; medium dosage 246 μg/kg): 0/10 | Body leukocyte number (B16F10 orthotopic tumor; tumor-bearing mice, tail vein blood, anti-tumor treatment experiment (28/56 days)): small impact on the body leukocyte number | Killing of cells in vitro [3]: effectively kills | Killing of cells in vitro [4]: effectively kills
